Drawing on patent publication US20250101126A1 (GO THERAPEUTICS, published 2025), this text covers Kd and EC50 for four molecules.

Numbering of substitutions follows the chain as printed.

For experiment [1], the target named is T1, MUC4-Tn glycopeptide CTIPSTAMHTRSTAAPIPILP (SEQ ID NO:154) with O-linked GalNAc on the serine and threonine … (not fully specified; O-linked GalNAc on Ser 12 and Thr 13; N-terminal biotin (Table 6); C-terminal amide in the form described in the SPR/BLI methods).
T1 construct: Synthetic glycopeptide made by FMOC synthesis; also called MUC4 glycopeptide; Tn-glycosylated MUC4 peptide
T1 peptide: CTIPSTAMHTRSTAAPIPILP
Description: BLI (Octet), apparent affinity; peptide on biosensor; +/- error at 95% confidence; same value as Table 7. (In general: In BLI a coated tip is dipped into the sample, and binding shifts an interference pattern.)

In experiment [2] the target is T1, MUC4-Tn glycopeptide …. Description: BLI (Octet), apparent affinity; peptide on biosensor; error +/- 0.251 nM at 95% confidence (r8c5).
In experiment [3] the target is MUC1-Tn. Description: BLI (Octet), apparent affinity; peptide on biosensor; error +/- 5.9 µM (r8c9).
Experiment [4] concerns the target T1, MUC4-Tn glycopeptide …. Description: SPR (Biacore); antibody immobilized, peptide as analyte. The text has this:
Antibody affinity assays can be carried out using surface plasmon resonance (e.g., using a Biacore system (Cytiva)). In a surface plasmon resonance assay, one or more antibodies can be immobilized onto a biosensor and presented with an analyte (e.g., the glyco-MUC4 peptide […]-amide (the amino acid portion of which is SEQ ID NO:154; bold and underlined residues indicate GalNAc glycosylation sites) or a negative control analyte such as un unglycosylated MUC4 peptide ([…]-amide (the amino acid portion of which is SEQ ID NO:155)). The antibodies are contacted with different concentrations of the analyte, for example concentrations of 2.5 nM, 7.4 nM, 22 nM, 66 nM and 200 nM. Affinity is measured using multi-cycle kinetics in triplicate for each analyte concentration, with 1 min association and 5 min dissociation. […] The affinity is determined by fitting the binding curve to a specific model: kinetic fit (1:1 model) or if applicable heterogenous ligand binding model.
(Surface plasmon resonance follows binding to a sensor surface in real time, without labels.)

Experiment [5] concerns the target T2, MUC4-Tn(T) peptide Biotin-CTIPSTAMHTRSTAAPIPILP (SEQ ID NO:198) (GalNAc on a threonine only (by the label Tn(T); the bold/underline marking of the site is lost in the text); N-terminal biotin).
T2 construct: Singly glycosylated form of the MUC4 peptide
T2 peptide: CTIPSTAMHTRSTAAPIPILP
The experiment in a line: BLI (Octet), apparent affinity; peptide on biosensor; error printed as 1 pM (r10c7).

The target in experiment [6] is MUC1-Tn. Description: BLI (Octet), apparent affinity; peptide on biosensor; error +/- 7.6 µM (r10c9).
Experiment [7] addresses T1, MUC4-Tn glycopeptide …. The experiment in a line: BLI (Octet), apparent affinity; peptide on biosensor; error +/- 2.32 nM (r10c5).
Experiment [8] has as its target T1, MUC4-Tn glycopeptide …. The experiment in a line: BLI (Octet), MUC4 glycopeptide on biosensor.
The target of experiment [9] is T3, Tn-glycosylated MUC4 on cells (MUC4-Tn; COSMC-KO cells, cancer tissue) (UniProt Q99102 29-5412, limits assumed, truncated Tn O-glycans (GalNAc-alpha1-O-Ser/Thr), from knock-out of the COSMC chaperone or in cancer tissue).
T3 construct: whole, on cells; also called Tn-MUC4; glyco-MUC4
Description: flow cytometry on T3M4 COSMC-KO (T3M4-M) cells. As for the experimental part: Adherent cells were dissociated with TrypLE select (Gibco) and washed from flask surface with cell culture media (RPMI w/L-glutamine, 1% PenStrep, & 10% FBS). Cells were washed several times by centrifugation at 300*g for 5 min at 4° C. followed by resuspension in PBS with 1% BSA (PBS/1% BSA). Cells were resuspended between 5×10⁵ cells/ml to 2×10⁶ cell/ml and then distributed into a 96 well U-bottom plate. Diluted commercial antibody (0.25-2 ug/ml), or purified humanized 2D5 candidates were added to T3M4 COSMC-KO cells and incubated for 1 hr on ice. Following several washes with PBS/1% BSA, cells were incubated for 30 min on ice with a 1:1600 dilution of AlexaFluor647 conjugated F(ab)₂ goat anti-human IgG Fcγ (JacksonImmunoResearch). Cells were washed again with PBS/1% BSA and then fixed in 1% formaldehyde in PBS/1% BSA. Cells were analysed on either a 2 or 4 laser Attune NXT flow cytometer. Data was processed in FlowJo Software.

In experiment [10] the target is MUC1-Tn. Description: BLI (Octet), apparent affinity; peptide on biosensor; error +/- 3.7 µM (r12c9).
Experiment [11] deals with T1, MUC4-Tn glycopeptide …. The experiment in a line: BLI (Octet), apparent affinity; peptide on biosensor; error +/- 10 nM (r12c5).
In experiment [12] the target is T2, MUC4-Tn(T) peptide …. The experiment in a line: BLI (Octet), apparent affinity; peptide on biosensor; error +/- 66 µM (r12c7).

The term EC50 denotes the concentration giving half of the maximal effect.

B1: 2D5.2F6.2C11 (antibody, V domains shown)
VH: QVQLQQSDAELVKPGASVRISCKAYGYTFTDHAIHWVKQKPEQGLEWLGYISPGNDDIQYNAKFKGKATLTADKSSSTAYMQLNSLTSDDSAVYFCKRSMANSFDYWGQGTTLTVSS
VL: NIMLTQSPSSLAVSAGEKVTMSCKSSQSVLYSSDQKNYLAWYQQKPGQSPKLLIYWASTRESGVPDRFTGSGSGTDFTLTISNVQAEDLAVYYCHQYLSSYTFGGGTKLEIK
notes: Murine monoclonal antibody from a hybridoma (Balb/c mice immunized with the KLH-conjugated Tn-MUC4 glycopeptide); also called mAb 2D5
B1: the Kd in experiment [1] was 2 nM; in experiment [2], 2 nM; with MUC1-Tn [3] it was 2900 nM; in experiment [4] it was 3.96 nM.

B2: 5B8.2A11.2C7 (antibody, V domains shown)
VH: QVQLQQSDAELVKPGASVKISCKASGYTFTDHAIHWVKQKPEQGLEWIGYFSPGNGDIKYNEKFKGKATLTADRSSSTANMHLNSLTSEDSAVYFCKRSMANYFDYWGQGTTLTVSS
VL: B1 VL with L4M, A12V, Q27H, D34N, R60K, E61N, N83S
notes: Murine monoclonal antibody from a hybridoma; also called mAb 5B8
For the molecule B2, the Kd was 560 nM in [5], 2800 nM with MUC1-Tn [6], 2.32 nM in experiment [7] and 3.93 nM in experiment [4].

B3: 2D5-cAb Chimeric antibody (human Fc domain + murine variable domain) (antibody, V domains shown)
VH: B1 VH
VL: B1 VL
The molecule B3 had a Kd in [8] of 3.2 nM. Also, the response in [9] was half-maximal at 0.0177 mg/L (EC50).

B4: 15F3.2D11.1E6 (antibody, V domains shown)
VH: B1 VH with K13E, R19K, K67R, Y106F
VL: B1 VL with Q85R
notes: Murine monoclonal antibody from a hybridoma; also called mAb 15F3
With B4, the Kd was found to be 2500 nM with MUC1-Tn [10], 50.2 nM in experiment [11], 79000 nM in experiment [12] and 3.56 nM in experiment [4].
